Experimental data taken from patent publication US20230002480A1.

Key:
Assay in all cases: cell-based or functional assay
[1] = molecular target: HIV-1 Env of pseudovirus ZM53M.PB12 (HIV-1)
[2] = molecular target: HIV-1 Env of pseudovirus Ce2010_F5 (HIV-1)
[3] = molecular target: HIV-1 Env of pseudovirus MS208.A1 (HIV-1)
[4] = molecular target: HIV-1 Env of pseudovirus CAAN5342.A2 (HIV-1)
[5] = molecular target: HIV-1 Env of pseudovirus 928-28 (HIV-1)
[6] = molecular target: HIV-1 Env of pseudovirus ZM109F.PB4 (HIV-1)
[7] = molecular target: HIV-1 Env of pseudovirus ZM233M.PB6 (HIV-1)
[8] = molecular target: HIV-1 Env of pseudovirus 0260.v5.c36 (HIV-1)
[9] = molecular target: HIV-1 Env of pseudovirus CAP210.2.00.E8 (HIV-1)
[10] = molecular target: HIV-1 Env of pseudovirus Ce703010054_2A2 (HIV-1)
[11] = molecular target: HIV-1 Env of pseudovirus Du422.1 (HIV-1)
[12] = molecular target: HIV-1 Env of pseudovirus 1012_11_TC21_3257 (HIV-1)
[13] = molecular target: HIV-1 Env of pseudovirus Du156.12 (HIV-1)
[14] = molecular target: HIV-1 Env of pseudovirus CNE20 (HIV-1)
[15] = molecular target: HIV-1 Env of pseudovirus Ce0393_C3 (HIV-1)
[16] = molecular target: HIV-1 Env of pseudovirus Ce1176_A3 (HIV-1)
[17] = molecular target: HIV-1 Env of pseudovirus Q461.e2 (HIV-1)
[18] = molecular target: HIV-1 Env of pseudovirus Ce0682_E4 (HIV-1)
[19] = molecular target: HIV-1 Env of pseudovirus ZM214M.PL15 (HIV-1)
[20] = molecular target: HIV-1 Env of pseudovirus ZM249M.PL1 (HIV-1)
[21] = molecular target: HIV-1 Env of pseudovirus CNE53 (HIV-1)
[22] = molecular target: HIV-1 Env of pseudovirus HIV-001428-2.42 (HIV-1)
[23] = molecular target: HIV-1 Env of pseudovirus 1056_10_TA11_1826 (HIV-1)
[24] = molecular target: HIV-1 Env of pseudovirus Q842.d12 (HIV-1)

10E8 (antibody)
IC50, titer in TZM.bl cells [1]: 3.98 µg/mL
IC80, titer in TZM.bl cells [1]: > 10 µg/mL
IC50, titer in TZM.bl cells [2]: 1.84 µg/mL
IC80, titer in TZM.bl cells [2]: 8.61 µg/mL
IC50, titer in TZM.bl cells [3]: 0.609 µg/mL
IC80, titer in TZM.bl cells [3]: 3.72 µg/mL
IC50, titer in TZM.bl cells [4]: 1.28 µg/mL
IC80, titer in TZM.bl cells [4]: 9.28 µg/mL
IC50, titer in TZM.bl cells [5]: 0.384 µg/mL
IC80, titer in TZM.bl cells [5]: 1.96 µg/mL
IC50, titer in TZM.bl cells [6]: 0.295 µg/mL
IC80, titer in TZM.bl cells [6]: 1.89 µg/mL
IC50, titer in TZM.bl cells [7]: 0.442 µg/mL
IC80, titer in TZM.bl cells [7]: 2.39 µg/mL
IC50, titer in TZM.bl cells [8]: > 10 µg/mL
IC80, titer in TZM.bl cells [8]: > 10 µg/mL
IC50, titer in TZM.bl cells [9]: 0.798 µg/mL
IC80, titer in TZM.bl cells [9]: 3.89 µg/mL
IC50, titer in TZM.bl cells [10]: 2.3 µg/mL
IC80, titer in TZM.bl cells [10]: 8.58 µg/mL
IC50, titer in TZM.bl cells [11]: 0.351 µg/mL
IC80, titer in TZM.bl cells [11]: 1.88 µg/mL
IC50, titer in TZM.bl cells [12]: 0.244 µg/mL
IC80, titer in TZM.bl cells [12]: 4.21 µg/mL
IC50, titer in TZM.bl cells [13]: 0.034 µg/mL
IC80, titer in TZM.bl cells [13]: 0.144 µg/mL
IC50, titer in TZM.bl cells [14]: 1.25 µg/mL
IC80, titer in TZM.bl cells [14]: 6.58 µg/mL
IC50, titer in TZM.bl cells [15]: 1.18 µg/mL
IC80, titer in TZM.bl cells [15]: 7.42 µg/mL
IC50, titer in TZM.bl cells [16]: 0.867 µg/mL
IC80, titer in TZM.bl cells [16]: 3.92 µg/mL
IC50, titer in TZM.bl cells [17]: 2.11 µg/mL
IC80, titer in TZM.bl cells [17]: > 10 µg/mL
IC50, titer in TZM.bl cells [18]: 1.22 µg/mL
IC80, titer in TZM.bl cells [18]: 7.71 µg/mL
IC50, titer in TZM.bl cells [19]: 1.96 µg/mL
IC80, titer in TZM.bl cells [19]: > 10 µg/mL
IC50, titer in TZM.bl cells [20]: 1.51 µg/mL
IC80, titer in TZM.bl cells [20]: 6.29 µg/mL
IC50, titer in TZM.bl cells [21]: 0.326 µg/mL
IC80, titer in TZM.bl cells [21]: 1.92 µg/mL
IC50, titer in TZM.bl cells [22]: 0.809 µg/mL
IC80, titer in TZM.bl cells [22]: 7.3 µg/mL
IC50, titer in TZM.bl cells [23]: 0.134 µg/mL
IC80, titer in TZM.bl cells [23]: 1.03 µg/mL
IC50, titer in TZM.bl cells [24]: 4.19 µg/mL
IC80, titer in TZM.bl cells [24]: > 10 µg/mL

PG9 (antibody)
IC50, titer in TZM.bl cells [1]: 0.069 µg/mL
IC80, titer in TZM.bl cells [1]: 0.221 µg/mL
IC50, titer in TZM.bl cells [2]: > 50 µg/mL
IC80, titer in TZM.bl cells [2]: > 50 µg/mL
IC50, titer in TZM.bl cells [3]: 0.005 µg/mL
IC80, titer in TZM.bl cells [3]: 0.014 µg/mL
IC50, titer in TZM.bl cells [4]: 4.6 µg/mL
IC80, titer in TZM.bl cells [4]: 27 µg/mL
IC50, titer in TZM.bl cells [5]: 0.101 µg/mL
IC80, titer in TZM.bl cells [5]: 0.45 µg/mL
IC50, titer in TZM.bl cells [6]: 0.256 µg/mL
IC80, titer in TZM.bl cells [6]: 6.69 µg/mL
IC50, titer in TZM.bl cells [7]: 0.01 µg/mL
IC80, titer in TZM.bl cells [7]: 0.026 µg/mL
IC50, titer in TZM.bl cells [8]: 1.69 µg/mL
IC80, titer in TZM.bl cells [8]: 9 µg/mL
IC50, titer in TZM.bl cells [9]: 0.04 µg/mL
IC80, titer in TZM.bl cells [9]: 0.173 µg/mL
IC50, titer in TZM.bl cells [10]: 0.022 µg/mL
IC80, titer in TZM.bl cells [10]: 0.103 µg/mL
IC50, titer in TZM.bl cells [11]: 0.614 µg/mL
IC80, titer in TZM.bl cells [11]: 10.4 µg/mL
IC50, titer in TZM.bl cells [12]: 0.172 µg/mL
IC80, titer in TZM.bl cells [12]: 0.605 µg/mL
IC50, titer in TZM.bl cells [13]: 0.026 µg/mL
IC80, titer in TZM.bl cells [13]: 0.19 µg/mL
IC50, titer in TZM.bl cells [14]: 0.052 µg/mL
IC80, titer in TZM.bl cells [14]: 0.278 µg/mL
IC50, titer in TZM.bl cells [15]: 0.02 µg/mL
IC80, titer in TZM.bl cells [15]: 0.055 µg/mL
IC50, titer in TZM.bl cells [16]: 0.014 µg/mL
IC80, titer in TZM.bl cells [16]: 0.044 µg/mL
IC50, titer in TZM.bl cells [17]: 1.48 µg/mL
IC80, titer in TZM.bl cells [17]: 8.72 µg/mL
IC50, titer in TZM.bl cells [18]: 0.196 µg/mL
IC80, titer in TZM.bl cells [18]: 0.698 µg/mL
IC50, titer in TZM.bl cells [19]: > 50 µg/mL
IC80, titer in TZM.bl cells [19]: > 50 µg/mL
IC50, titer in TZM.bl cells [20]: 0.166 µg/mL
IC80, titer in TZM.bl cells [20]: 1.41 µg/mL
IC50, titer in TZM.bl cells [21]: 0.131 µg/mL
IC80, titer in TZM.bl cells [21]: 0.6 µg/mL
IC50, titer in TZM.bl cells [22]: 0.101 µg/mL
IC80, titer in TZM.bl cells [22]: 0.25 µg/mL
IC50, titer in TZM.bl cells [23]: 6.34 µg/mL
IC80, titer in TZM.bl cells [23]: 38.3 µg/mL
IC50, titer in TZM.bl cells [24]: 0.023 µg/mL
IC80, titer in TZM.bl cells [24]: 0.081 µg/mL

PG16 (antibody)
IC50, titer in TZM.bl cells [1]: 0.007 µg/mL
IC80, titer in TZM.bl cells [1]: 0.051 µg/mL
IC50, titer in TZM.bl cells [2]: > 50 µg/mL
IC80, titer in TZM.bl cells [2]: > 50 µg/mL
IC50, titer in TZM.bl cells [3]: 0.002 µg/mL
IC80, titer in TZM.bl cells [3]: 0.004 µg/mL
IC50, titer in TZM.bl cells [4]: 1.83 µg/mL
IC80, titer in TZM.bl cells [4]: 33 µg/mL
IC50, titer in TZM.bl cells [5]: 0.034 µg/mL
IC80, titer in TZM.bl cells [5]: 0.237 µg/mL
IC50, titer in TZM.bl cells [6]: 7.03 µg/mL
IC80, titer in TZM.bl cells [6]: > 50 µg/mL
IC50, titer in TZM.bl cells [7]: 0.002 µg/mL
IC80, titer in TZM.bl cells [7]: 0.006 µg/mL
IC50, titer in TZM.bl cells [8]: 1.54 µg/mL
IC80, titer in TZM.bl cells [8]: 36.1 µg/mL
IC50, titer in TZM.bl cells [9]: 0.01 µg/mL
IC80, titer in TZM.bl cells [9]: 0.042 µg/mL
IC50, titer in TZM.bl cells [10]: 0.008 µg/mL
IC80, titer in TZM.bl cells [10]: 0.053 µg/mL
IC50, titer in TZM.bl cells [11]: 0.261 µg/mL
IC80, titer in TZM.bl cells [11]: 33.8 µg/mL
IC50, titer in TZM.bl cells [12]: 0.03 µg/mL
IC80, titer in TZM.bl cells [12]: 0.219 µg/mL
IC50, titer in TZM.bl cells [13]: 0.006 µg/mL
IC80, titer in TZM.bl cells [13]: 0.026 µg/mL
IC50, titer in TZM.bl cells [14]: 3.63 µg/mL
IC80, titer in TZM.bl cells [14]: 47.2 µg/mL
IC50, titer in TZM.bl cells [15]: 0.002 µg/mL
IC80, titer in TZM.bl cells [15]: 0.006 µg/mL
IC50, titer in TZM.bl cells [16]: 0.003 µg/mL
IC80, titer in TZM.bl cells [16]: 0.011 µg/mL
IC50, titer in TZM.bl cells [17]: 1.75 µg/mL
IC80, titer in TZM.bl cells [17]: > 50 µg/mL
IC50, titer in TZM.bl cells [18]: 0.026 µg/mL
IC80, titer in TZM.bl cells [18]: 0.202 µg/mL
IC50, titer in TZM.bl cells [19]: > 50 µg/mL
IC80, titer in TZM.bl cells [19]: > 50 µg/mL
IC50, titer in TZM.bl cells [20]: 0.127 µg/mL
IC80, titer in TZM.bl cells [20]: 18.1 µg/mL
IC50, titer in TZM.bl cells [21]: > 50 µg/mL
IC80, titer in TZM.bl cells [21]: > 50 µg/mL
IC50, titer in TZM.bl cells [22]: 0.039 µg/mL
IC80, titer in TZM.bl cells [22]: 0.25 µg/mL
IC50, titer in TZM.bl cells [23]: 0.315 µg/mL
IC80, titer in TZM.bl cells [23]: 1.95 µg/mL
IC50, titer in TZM.bl cells [24]: 0.032 µg/mL
IC80, titer in TZM.bl cells [24]: > 0.25 µg/mL
